Data on seven molecules can be found in patent publication US5663141A, “Hirudin/polyalkylene glycol conjugates and hirudin muteins” (BASF Aktiengesellschaft, priority 1989, dated 1997).

The conditions of data set [1]: in vivo; cited from earlier work.
Data set [2] has as its target thrombin (Homo sapiens, UniProt P00734). The data set is described as follows: thrombin inhibition assay with the chromogenic substrate S 2238 (specific activity). The data set is classed as biochemical. An excerpt:
The specific activity of the PEG1 -hirudin conjugate purified from the coupling mixture was 8,000 U/mg of protein (determined by the thrombin inhibition assay with the chromogenic substrate S 2238 (Kabi), (FEBS-Lett. (1983), 164, 307), protein determined by BCA assay with serum albumin as standard (Pierce)), and the molecular weight of the conjugate was 15,000 Da (Superose®-12 chromatography, Pharmacia).

Data set [3] has as its target thrombin.
The nature of data set [4]: Pharmacokinetics of PEG2-hirudin conjugates in dogs (plasma anti-factor IIa activity). Particulars: beagle dogs, 4,000 U/kg intravenous or subcutaneous, compared with underivatized hirudin, FIGS. 3 and 4. The data set is classed as in vivo. The method, then:
2 groups of dogs (beagle dogs, 4 animals in each group) each received intravenous or subcutaneous administration of 4,000 U/kg PEG2 -hirudin (0.2 ml vol). 2 ml samples of blood in 0.1M Na citrate were taken 0.25, 0.5, 1, 2, 3, 4, 6, 8, 24, 32, 48, 56, 72 and 80 h after the injection. Subsequently platelet-poor plasma was prepared by centrifugation at 4,000 g for 10 minutes, and the plasma PEG-hirudin concentration was determined by the thrombin inhibition in the chromogenic substrate assay with S 2238 (Kabi). For comparison, the same dogs were treated in another experiment with hirudin. The time course of the plasma hirudin concentration was subsequently determined as described above.
FIGS. 3 and 4 depict the time course of the anti-factor IIa activities after intravenous and subcutaneous administration of PEG2 -hirudin and underivatized hirudin.

[5] abbreviates: purified conjugate, protein determined by BCA assay with serum albumin as standard.
Where [6] appears, read: underivatized protein used as starting material.

For the molecule “hirudin: naturally occurring anticoagulant protein of 65 amino acids from the leech Hirudo medicinalis, thrombin inhibitor”, in data set [1], the “half-life in the blood” value is “about 50 min”.
With “PEG1-hirudin: desulfatohirudin carrying one methoxy-polyethylene glycol(8000) residue, Example 9”, the specific activity with thrombin [2] (setting [5]) is 8,000 U/mg of protein.
desulfatohirudin (from UniProt P01050): the specific activity with thrombin [3] was found to be 8000 ATU/mg.
As to “PEG2-hirudin: desulfatohirudin carrying two methoxypolyethylene glycol (8,000 Da) residues, Example 10”, the specific activity with thrombin [2] (setting [5]) is listed as 6,200 U/mg of protein. In addition, in data set [4], the bioavailability entry is “better” and the “duration of the biological action (anti-factor IIa activity time course)” value was “distinctly prolonged”.
As for “desulfatohirudin: hirudin prepared by genetic engineering, sulfate residue on Tyr 63 absent; sequences 1A + 2A + 3A [reference compound]”, the specific activity with thrombin [2] (setting [6]) is 8,000 ATU/mg.

B1: HL 14B: hirudin mutein, Asp33→Lys33, Lys36→Arg36, Lys47→Arg47 (protein)
chain: VVYTDCTESGQNLCLCEGSNVCGQGNKCILGSKGERNQCVTGEGTPRPQSHNDGDFEEIPEEYLQ
As to B1, the specific activity in the data set with thrombin [2] (setting [6]) is listed as 8,900 ATU/mg.

B2: PEG2-HL 14B: hirudin mutein HL 14B carrying two methoxy-polyethylene glycol (8,000 Da) residues, Example 11 (conjugate)
chain: VVYTDCTESGQNLCLCEGSNVCGQGNKCILGSKGERNQCVTGEGTPRPQSHNDGDFEEIPEEYLQ
modifications: ends and bridges not checked; also: two methoxy-PEG (8,000 Da) on lysine side-chain amino groups, positions not given here
As to B2, the specific activity with thrombin [2] (setting [5]) is given as 8,300 U/mg of protein.
